According to the RNAGym collection of RNA variant scans (doi:10.1073/pnas.2313332121):

B1: TPR t1 (parent)
chain: GACCAAUCUGCCCUCAGAGCUCGAGAACAUCUUCGGAUGCAGAGGAGGCAGGCUUCGGUGGCGCGAUAGCGCCAACGUCCUCAACCUCCAAUGCAUCCCACCACAUGAUGAUGCCUGAAGAGCCUUGGUUUUUUG

Variants of: B1
Test: polymerase ribozyme fitness, log enrichment relative to wild type (log ratio); higher = more active; in vitro selection for triplet polymerase activity
In short: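 Mutant libraries for each subunit of a heterodimeric triplet polymerase ribozyme were made by PCR and then transcribed. Each library underwent one round of in vitro selection in triplicate: annealing with a biotinylated primer, the partner subunit and triplets, frozen incubation at −7 °C, gel excision of extended constructs, streptavidin-bead capture and RT-PCR. Input and output libraries were Illumina-sequenced, and only genotypes with ≥10 input reads and ≥1 read per output were kept. Fitness is the logarithm, base 2, of genotype enrichment over wild-type enrichment, computed from inverse-variance-weighted replicate averages.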

Variant	polymerase ribozyme fitness (log ratio)
GACCAAUCUGCCCUCAGAGCUCGAGAACAUCUUCGGAUGCAGAGGAGGCAGGCUUCGGUGGCGCGAUAGCGACAACGUCCUGAACCUCCACUCCAUCCCACCACAUGAUGAUGCCUGAAGAGCCUUGGUUUUUUG [C72A C82G A91C G93C]	-3.15
GACCAAUCUGCCCUCAGAGCUCGAGAACAUCUUCGGAUGCAGAGGAGGCAGGCUUCGGUGGCGCGAUAGCUCCAACGUCCUCAACCUCCAAUGCAUCCCACCACAUGAUGAUGCCUGAAGAGCUUUGGUUUUUUG [G71U C124U]	1.13
GACCAAUCUGCCCUCAGAGCUCGAGAACAUCUUCGGAUGCAGAGGAGGCAGGCUUCGGUGGCGCGAUAGCUCCAACGUCCUCAACCUCCAAUGUAUCCCACCACAUGAUGAUGCCUCAAGAGCCUUGGUUUUUUG [G71U C94U G117C]	-3.99
GACCAAUCUGCCCUCAGAGCUCGAGAACAUCUUCGGAUGCAGAGGAGGCAGGCUUCGGUGGCGCGAUAGCUCCAACGUCCUCAACCUCCAAUGCACCCCACCACAUGAUGAUGCCUGAAGAGCCUUGGUUUUUUG [G71U U96C]	-0.38
GACCAAUCUGCCCUCAGAGCUCGAGAACAUCUUCGGAUGCAGAGGAGGCAGGCUUCGGUGGCGCGAUAGCGACAACGUCCUCAACCUUCAAUGCAUCCCACCACAUGAUGAUGCCUGAAGAGCCUUGGUUUUUUG [C72A C88U]	-0.32
GACCAAUCUGCCCUCAGAGCUCGAGAACAUCUUCGGAUGCAGAGGAGGCAGGCUUCGGUGGCGCGAUAGCUCCAACGUCCGCAACCUCCAAUGCAUCCCACCACAUGAUGAUGCCUGAAGAGCCUUGGUUUUUUG [G71U U81G]	-4.34
GACCAAUCUGCCCUCAGAGCUCGAGAACAUCUUCGGAUGCAGAGGAGGCAGGCUUCGGUGGCGCGAUAGCUCCAACGUCCUCAACCUCCAAUGCAUCCCACCACAUGAUGAUCUCUGAAGAGCCUUGAUUUUUUG [G71U G113C C114U G128A]	-3.3
GACCAAUCUGCCCUCAGAGCUCGAGAACAUCUUCGGAUGCAGAGGAGGCAGGCUUCGGUGGCGCGAUAGCUCCAACGUCCUCAACCUCCAAUGCAUCCUACCACAUGAUGAUGCCUGAAGAGCCUUGGAUUUUUG [G71U C99U U129A]	-5.39
GACCAAUCUGCCCUCAGAGCUCGAGAACAUCUUCGGAUGCAGAGGAGGCAGGCUUCGGUGGCGCGAUAGCGACAACGUCCUAAACCUCCAAUGCAUCCCACCACAUGAUGAUGCCUGAAGAGCCUUGGUUUUUUG [C72A C82A]	0.281
GACCAAUCUGCCCUCAGAGCUCGAGAACAUCUUCGGAUGCAGAGGAGGCAGGCUUCGGUGGCGCGAUAGCGACAACGUCCUUAACCUCCAAUGCAUCCCACCACAUGAUGAUGCCUGAAGAGCCUUGGUUUUUUG [C72A C82U]	0.305
GACCAAUCUGCCCUCAGAGCUCGAGAACAUCUUCGGAUGCAGAGGAGGCAGGCUUCGGUGGCGCGAUAGCUCCAACGUCCUCAACCUCCAAUGCAUCCCACCACAUGAUGAUGCCUGAAGAGCCUUGGUAUUUUG [G71U U130A]	0.232
GACCAAUCUGCCCUCAGAGCUCGAGAACAUCUUCGGAUGCAGAGGAGGCAGGCUUCGGUGGCGCGAUAGCUCCAACGUCCUAAACCUCCAAUGCAUCCCACCACAUGAUGAUGCCUGAAGAGCCUUGGUUUUUUG [G71U C82A]	-1.91
GACCAAUCUGCCCUCAGAGCUCGAGAACAUCUUCGGAUGCAGAGGAGGCAGGCUUCGGUGGCGCGAUAGCGACAACGUCCUCAACCUCCUAUGCAUCCCAACACAUGAUGAUGCCUGAAGAACCUUGGUUUUUUG [C72A A90U C101A G122A]	-3.86
GACCAAUCUGCCCUCAGAGCUCGAGAACAUCUUCGGAUGCAGAGGAGGCAGGCUUCGGUGGCGCGAUAGCGACAACGUCCUCAACCUCCAAUGCGUGCCACCAAAUGAUGAUGCCUGUAGAGCCUUCGUUUUUUG [C72A A95G C97G C104A A118U G127C]	-5.66
GACCAAUCUGCCCUCAGAGCUCGAGAACAUCUUCGGAUGCAGAGGAGGCAGGCUUCGGUGGCGCGAUAGCUCCAACGUCCUCAACCUCCAAUGCAUCCCACCACAUGAUGAUGCCCGAAGAGCCUUGGUUUUUUG [G71U U116C]	-0.726
GACCAAUCUGCCCUCAGAGCUCGAGAACAUCUUCGGAUGCAGAGGAGGCAGGCUUCGGUGGCGCGAUAGCUCCAACGUCCUCAACCUCCAAUGCAUCCCACCACAUGAUGAUGCCUAAAGAGCCUUGGUUUUUUG [G71U G117A]	-1.51
GACCAAUCUGCCCUCAGAGCUCGAGAACAUCUUCGGAUGCAGAGGAGGCAGGCUUCGGUGGCGCGAUAGCUCCAACGUCCUCAACCUCCAAUGCAUCCCACCACAUGAUGAUGCCUGAAGAGCCUUGUUUUUUUG [G71U G128U]	-2.61
GACCAAUCUGCCCUCAGAGCUCGAGAACAUCUUCGGAUGCAGAGGAGGCAGGCUUCGGUGGCGCGAUAGCUCCAACGUCCUCAACCUCCAAUACAUCCCACCAUAUGAUGAUGCCUGAAGAGCCUUGGUUUUUUG [G71U G93A C104U]	-0.466
GACCAAUCUGCCCUCAGAGCUCGAGAACAUCUUCGGAUGCAGAGGAGGCAGGCUUCGGUGGCGCGAUAGCUCCAACGUCCUCAACCUCCAAAUCAUCCCACCACAUGAUGAUGCCUGAAGAGCCUUGGUUUUUUG [G71U U92A G93U]	-3.61
GACCAAUCUGCCCUCAGAGCUCGAGAACAUCUUCGGAUGCAGAGGAGGCAGGCUUCGGUGGCGCGAUAGCUCCAACGUCCUCAACCUCCAAUGCAUCCCACCACAUGAUGAUGCCUGAAGAGCCUUGGCUUUUUG [G71U U129C]	-0.505
GACCAAUCUGCCCUCAGAGCUCGAGAACAUCUUCGGAUGCAGAGGAGGCAGGCUUCGGUGGCGCGAUAGCUCCAACGUCCUCAACCUCCAAUGCAUCCCACCACAUGAUGAUGCCUGAAGAGCCUUGGAUUUUUG [G71U U129A]	-1.8

Variant	polymerase ribozyme fitness (log ratio)
GACCAAUCUGCCCUCAGAGCUCGAGAACAUCUUCGGAUGCAGAGGAGGCAGGCUUCGGUGGCGCGAUAGCUCCAACGUCCGCAACCUCCAAUGCAUCCCACCACAUGAUGAAGCCUGAAGAGCCUUGGUUUUUUG [G71U U81G U112A]	-5.24
GACCAAUCUGCCCUCAGAGCUCGAGAACAUCUUCGGAUGCAGAGGAGGCAGGCUUCGGUGGCGCGAUAGCUCCAACGUCCUCAACCUCCAAUGCAUCCCACCACAUGAUGAUGCCUGAACAGCCUUGGUUUUUUG [G71U G120C]	0.378
GACCAAUCUGCCCUCAGAGCUCGAGAACAUCUUCGGAUGCAGAGGAGGCAGGCUUCGGUGGCGCGAUAGCGACAACGUCCUAAACCUCCAAUGCAUGCCACCACAUGAUGAUGGCUGAAGAGCCUUGGUUUUUUG [C72A C82A C97G C114G]	-5.93
GACCAAUCUGCCCUCAGAGCUCGAGAACAUCUUCGGAUGCAGAGGAGGCAGGCUUCGGUGGCGCGAUAGCGACACCGUCCUCAACCGCCAAUGCAUCCCACAACAUGAUGAUGCCAGAAGAGCUUUGGUAUUUUG [C72A A75C U87G C102A U116A C124U U130A]	-5.54
GACCAAUCUGCCCUCAGAGCUCGAGAACAUCUUCGGAUGCAGAGGAGGCAGGCUUCGGUGGCGCGAUAGCGACAACGUCCUCAAACUCCAAUGCAUCCCACCACAUGAUGAUGCCUGAAGAGCCUUGGUUUUUUG [C72A C85A]	0.00801
GACCAAUCUGCCCUCAGAGCUCGAGAACAUCUUCGGAUGCAGAGGAGGCAGGCUUCGGUGGCGCGAUAGCUCCAACGUCCUCAACCUCCAAUGCAUCCCACCACAUGAUGAUGCCUGAAGAGCCUUGGUUUAUUG [G71U U132A]	0.382
GACCAAUCUGCCCUCAGAGCUCGAGAACAUCUUCGGAUGCAGAGGAGGCAGGCUUCGGUGGCGCGAUAGCUCCAACGCCCUCAACCUCCAAUGCAUCUCACCACAUGAUGAUGCCUGAUGAGCCUUGGUUUUUUG [G71U U78C C98U A119U]	-1.19
GACCAAUCUGCCCUCAGAGCUCGAGAACAUCUUCGGAUGCAGAGGAGGCAGGCUUCGGUGGCGCGAUAGCUCCAACGUCCUCAACCUCCAAUGCAUCCCACUACAUGAUGAUGCCUGAAGAGCCUUGGUUUUUUG [G71U C102U]	-1.69
GACCAAUCUGCCCUCAGAGCUCGAGAACAUCUUCGGAUGCAGAGGAGGCAGGCUUCGGUGGCGCGAUAGCUCCAACGUCCUCAACCUCCAAUGCAUCCCACCACAUGAUGAUGCCUGAAGAGCCUUGGUUUUUUC [G71U G135C]	0.388
GACCAAUCUGCCCUCAGAGCUCGAGAACAUCUUCGGAUGCAGAGGAGGCAGGCUUCGGUGGCGCGAUAGCGACAACGUCCUCUACCUCCAAUGCAUCCCACCACAUGAUGAUGCCUGAAGAGCCUUGUUUUUUUG [C72A A83U G128U]	-2.86
GACCAAUCUGCCCUCAGAGCUCGAGAACAUCUUCGGAUGCAGAGGAGGCAGGCUUCGGUGGCGCGAUAGCUCCAACGUCCUCAACCUCCAAUGCAUCCCACCACAUGAUGAUGGCUGAAGAGCCUUGGUUUUUUG [G71U C114G]	-2.81
GACCAAUCUGCCCUCAGAGCUCGAGAACAUCUUCGGAUGCAGAGGAGGCAGGCUUCGGUGGCGCGAUAGCGACAACGUCCUCAACCUCCAAUGCAUCCCACCACAUGUUGAUGCCUGAAGAGCCUUGGUUUUUUG [C72A A108U]	-5.64
GACCAAUCUGCCCUCAGAGCUCGAGAACAUCUUCGGAUGCAGAGGAGGCAGGCUUCGGUGGCGCGAUAGCGACAACGUCCUGAACCUCCAAUGCAUCCCACCACAUGAUGAUGCAUGAAGAGACUUGGUUUUUUG [C72A C82G C115A C123A]	-1.36
GACCAAUCUGCCCUCAGAGCUCGAGAACAUCUUCGGAUGCAGAGGAGGCAGGCUUCGGUGGCGCGAUAGCUCCAACGUCCUCAACCUCCAAUGCAUCCCACCACAUGAUGAUGCCUGAAGAGCCAUGGUUUUUUG [G71U U125A]	-1.21
GACCAAUCUGCCCUCAGAGCUCGAGAACAUCUUCGGAUGCAGAGGAGGCAGGCUUCGGUGGCGCGAUAGCUCCAACGUCCUCAACCUCCAAUGCAUCCUACCACAUGAUGAUGCCUGAAUAGCCUUGGUUUUUUG [G71U C99U G120U]	-4.26
GACCAAUCUGCCCUCAGAGCUCGAGAACAUCUUCGGAUGCAGAGGAGGCAGGCUUCGGUGGCGCGAUAGCGACAACGUACUCAACCUCCAAUGAAUCCCACCACAUGAUGAUGCCUGAAGAGCCUUCGUUUUUUG [C72A C79A C94A G127C]	-2.85
GACCAAUCUGCCCUCAGAGCUCGAGAACAUCUUCGGAUGCAGAGGAGGCAGGCUUCGGUGGCGCGAUAGCGACAACGUCCUCAACCUCCAAUGCAUUCCACCACAUGAUGAUGCCUGAAGAGCCUUGGUUUUUUG [C72A C97U]	0.226
GACCAAUCUGCCCUCAGAGCUCGAGAACAUCUUCGGAUGCAGAGGAGGCAGGCUUCGGUGGCGCGAUAGCGACAACGUCCUCAACCUCAAAUGCAUCCCACCACAAGAUGAUGCCUGAAGAGCCUUGGUUUUUUG [C72A C89A U106A]	-2.09
GACCAAUCUGCCCUCAGAGCUCGAGAACAUCUUCGGAUGCAGAGGAGGCAGGCUUCGGUGGCGCGAUAGCUCCAACGUCCUCAACCUCUAAUGCAUCCCAUCACAUGAUGAUGCCUGAAGAGUCUUGCUUUUUUG [G71U C89U C101U C123U G128C]	-1.14
GACCAAUCUGCCCUCAGAGCUCGAGAACAUCUUCGGAUGCAGAGGAGGCAGGCUUCGGUGGCGCGAUAGCUCCAACGUCCUCAACCUCCAAUGCAUCCCACCACAUGAUGAUUCCUGAAGAGCCUUGGUUUUUUG [G71U G113U]	-1.67
GACCAAUCUGCCCUCAGAGCUCGAGAACAUCUUCGGAUGCAGAGGAGGCAGGCUUCGGUGGCGCGAUAGCUCCAACGUCCUCAACCUCCAAUGCAUCCCACCACAUGAUGAUCCCUGAAGAGCCUUGGUUUUUUG [G71U G113C]	-1.47
